The results in this text go back to patent US20230213527A1, “COMPOSITIONS AND METHODS FOR POLYPEPTIDE ANALYSIS” (Quantum-Si Incorporated, priority 2021, published 2023).

For assay [1], the target named is … (SEQ ID NO: 823), state with N-terminal leucine (…). Briefly: single-molecule on-chip sequencing with PS691, PS610 and PS961.
The target of assay [2] is RLp… (SEQ ID NO: 824), state with N-terminal leucine (Lp…). The description is as above.

B1: PS961 (designed binder)
chain: MPTAASATESAIEDTPAPARPEVDGRTKPKRQPRYHVVLWDDDDHTYQYVVVMLRSLFGHPPSRGYRMAKEMDTQGRVIVLTTTREHAELKRDQIHAFGRDRLLARSKGSMKASIEAEE
Consider B1, for which the RS mean PD in assay [1] turned out to be 2.45 s; in assay [2] it was 3.4 s.
